Experimental data published in patent US20140302123A1.

Key:
[1] = molecular target: T1, PTPN4-PDZ (residues G499-N604) (human), P29074; assay: NMR titration, 15N-labeled PTPN4-PDZ with unlabeled peptide
T1 chain: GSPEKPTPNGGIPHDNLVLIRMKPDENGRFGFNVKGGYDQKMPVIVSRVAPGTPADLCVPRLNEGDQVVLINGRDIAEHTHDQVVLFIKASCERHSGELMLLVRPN

[2] = molecular target: T1, PTPN4-PDZ (residues G499-N604) (human), …; assay: NMR titration (rounded value in the text)

## SWESHKSGGETRL (modifications not checked) [Cyto13-att]
[1]
  Kd: 157 µM
[2]
  Kd: 160 µM
